Article PMC11964227, “Critical functions and key interactions mediated by the RNase E scaffolding domain in Pseudomonas aeruginosa” (PLOS Genetics, 2025)

T1: His10Smt3-tagged PNPase (P. aeruginosa, UniProt Q9HV59 1-701)
T1 construct: Polyribonucleotide phosphorylase (PNPase), P. aeruginosa, pnp; also called His10-Smt3-PNPase; source: soluble bacterial lysates, purified (nickel-agarose)
T1 sequence (looked up): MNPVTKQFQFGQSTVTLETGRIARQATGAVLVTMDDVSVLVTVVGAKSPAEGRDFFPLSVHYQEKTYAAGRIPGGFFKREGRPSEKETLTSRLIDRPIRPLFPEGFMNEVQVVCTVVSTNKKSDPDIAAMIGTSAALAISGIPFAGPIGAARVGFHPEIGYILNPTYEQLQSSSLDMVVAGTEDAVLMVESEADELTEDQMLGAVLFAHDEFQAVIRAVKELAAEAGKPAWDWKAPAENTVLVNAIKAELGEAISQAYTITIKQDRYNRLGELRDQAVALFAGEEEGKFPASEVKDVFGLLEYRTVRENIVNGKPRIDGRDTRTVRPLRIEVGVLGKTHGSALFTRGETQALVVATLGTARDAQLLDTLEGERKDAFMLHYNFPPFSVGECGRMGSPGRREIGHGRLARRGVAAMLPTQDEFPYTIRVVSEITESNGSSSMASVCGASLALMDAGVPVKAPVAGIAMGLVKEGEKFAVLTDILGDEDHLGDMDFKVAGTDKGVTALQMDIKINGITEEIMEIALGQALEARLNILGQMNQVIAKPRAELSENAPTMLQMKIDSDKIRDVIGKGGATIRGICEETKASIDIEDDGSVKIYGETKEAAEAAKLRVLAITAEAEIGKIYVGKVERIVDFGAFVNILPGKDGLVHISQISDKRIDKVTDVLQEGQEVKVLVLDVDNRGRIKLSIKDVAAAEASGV

B1: Flag-RNase E^572-1057 (domain or fragment, P. aeruginosa, UniProt Q9HZM8 572-1057, looked up)
chain: AAKPAETSKPAAERQTRQDERRNGRQQNRRRDGRDGNRRDEERKPREERAERQPREERAERPNREERSERRREERAERPAREERQPREGREERAERTPREERQPREGREGREERSERRREERAERPAREERQPREGREERAERPAREERQPREDRQARDAAALEAEALPNDESLEQDEQDDTDGERPRRRSRGQRRRSNRRERQREVSGELEGSEATDNAAAPLNTVAAAAAAGIAVASEAVEANVEQAPATTSEAASETTASDETDASTSEAVETQGADSEANTGETADIEAPVTVSVVRDEADQSTLLVAQATEEAPFASESVESREDAESAVQPATEAAEEVAAPVPVEVAAPSEPAATEEPTPAIAAVPANATGRALNDPREKRRLQREAERLAREAAAAAEAAAQAAPAVEEIPAVASEEASAQEEPAAPQAEEITQADVPSQADEAQEAVQAEPEASGEGAADTEHAKKTEESETSRPHA
notes: The results call the C-terminal tag 3xFlag, the methods Twin-Strep-Flag; also called RNase E CTD with no MTS; source: soluble bacterial lysates, purified (nickel-agarose, 250 mM imidazole fraction); not shown: His10-Smt3, N-terminal, kept; Twin-Strep-Flag, C-terminal, kept
B2: T25-PNPase (enzyme, P. aeruginosa, UniProt Q9HV59 1-701, looked up)
chain: T1 sequence (looked up)
notes: Polyribonucleotide phosphorylase (PNPase), P. aeruginosa, pnp; source: bacterial two-hybrid fusion (pKT25), E. coli BTH101
B3: T25-RhlB (enzyme, P. aeruginosa, UniProt Q9HXE5 1-397, looked up)
chain: MVEPQEGKTRFHDFNLAPSLMHAIHDLGFPYCTPIQAQVLGFTLRGQDAIGRAQTGTGKTAAFLISIITQLLQTPPPKERYMGEPRALIIAPTRELVVQIAKDAAALTKYTGLNVMTFVGGMDFDKQLKQLEARFCDILVATPGRLLDFNQRGEVHLDMVEVMVLDEADRMLDMGFIPQVRQIIRQTPHKGERQTLLFSATFTDDVMNLAKQWTVDPAIVEIEPENVASDTVEQHVYAVAGSDKYKLLYNLVAQNNWERVMVFANRKDEVRRIEERLTKDGISAAQMSGDVPQHKRIRTLEGFREGKIRVLVATDVAGRGIHIDGISHVINFTLPEDPDDYVHRIGRTGRAGASGTSISFAGEDDAFALPPIEELLGRKITCEMPPAELLKPVPRKH
notes: RNA helicase RhlB, P. aeruginosa; source: bacterial two-hybrid fusion (pKT25), E. coli BTH101

Experiments:
His10Smt3-tagged PNPase = molecular target: T1, His10Smt3-tagged PNPase; assay: pull-down; purified Flag-tagged RNase E proteins (20-25 µg) immobilised on anti-Flag M2 magnetic beads, 5 µg of PNPase or RhlB in 100 µL buffer H (50 mM Tris-HCl pH 8.0, 150 mM NaCl, 0.01% Triton X-100), 1 hour at 4 °C; SDS-PAGE, Coomassie Blue; settings: both partners purified
T18-RNase E^1-1057 = molecular target: T2, T18-RNase E^1-1057 (P. aeruginosa, UniProt Q9HZM8 1-1057); assay: two-hybrid; adenylate-cyclase-based bacterial two-hybrid in E. coli BTH101 (T18 and T25 fusions); MacConkey agar with maltose and IPTG, 30°C then room temperature; β-galactosidase activity with ONPG; settings: partners not purified
T2 construct: source: bacterial two-hybrid fusion (pUT18C), E. coli BTH101

Binder	binding result (His10Smt3-tagged PNPase)	fold increase of β-galactosidase activity compared to empty vector controls (T18-RNase E^1-1057)
B1	binds	
B2		11 fold
B3		5 fold
